# B1: LINE1-mini (parent)
# chain: GGCAGAGCUCAACACAGCGUGGCAAAGUGGCUGUGGCUAGACUGCC
# Variants of: B1
# Assay: self-cleavage, relative activity (ratio to wild type); higher = more cleavage; in vitro, sequencing; the parent is a self-cleaving ribozyme
row,Variant,self-cleavage
1,GGCAGAGCCCAACACAGCGUGGCAAAGAGGCUGUGGCUAGACUGCC [U9C U28A],0.03
2,GGCAGAGCUCAACAUAGCGUGGCAAAGUGGCUGUGGCUAGACUCCC [C15U G44C],0.31
3,GGCAGCGCUCAACACAGCGUGGCAAAGUGGCUUUGGCUAGACUGCC [A6C G33U],0.09
4,GGCAGAGCUCACCACAGCGUUGCAAAGUGGCUGUGGCUAGACUGCC [A12C G21U],0.03
5,GGCAGAGCUCAACACAGCGGGGCAAAGUGGCUGUGGCUAGACUGGC [U20G C45G],0.25
6,GGCAGAGCUCAACACAGCUUGGCAAAGUGGCUGCGGCUAGACUGCC [G19U U34C],0.17
7,GGCAGAGAUCAACACUGCGUGGCAAAGUGGCUGUGGCUAGACUGCC [C8A A16U],0.23
8,GGCAGAGCUCAACACAGCGGGGCAAAGUGGCUAUGGCUAGACUGCC [U20G G33A],0.09
9,GGCGGAGCUCAACACAGCGUGUCAAAGUGGCUGUGGCUAGACUGCC [A4G G22U],1.14
10,GGCAGAGCUCAACACUGCGUGGCAUAGUGGCUGUGGCUAGACUGCC [A16U A25U],0.1
11,GGCAUAGCUCAACACAGCGUGGCAAAGUGGCUGUCGCUAGACUGCC [G5U G35C],0.06
12,GGCAGAGCUCAACACAGGGGGGCAAAGUGGCUGUGGCUAGACUGCC [C18G U20G],0.41
13,GGAAGAGCCCAACACAGCGUGGCAAAGUGGCUGUGGCUAGACUGCC [C3A U9C],0.05
14,GACAGAGCUCAACACCGCGUGGCAAAGUGGCUGUGGCUAGACUGCC [G2A A16C],0.16
15,GUCAGAGCUCAACACAGCGUGGCAAAGUGGCUGUGGCUAGACUGUC [G2U C45U],0.11
16,GGCAGAGCUCAACACAGCGUGGCAACGUGGCUGUGGCUAGAUUGCC [A26C C42U],0.48
17,GGCAGAGCUCAGCACAGCGUGGCUAAGUGGCUGUGGCUAGACUGCC [A12G A24U],0.03
18,GGCAGAGCUCAACACAGGGUGGCAAAGUGGCUGUGGCUAGACUGAC [C18G C45A],0.26
19,GGAAGAGCUCAACACAGCGUGACAAAGUGGCUGUGGCUAGACUGCC [C3A G22A],0.52

row,Variant,self-cleavage
1,GGCAGAGGUCAACACAGCGUGGCCAAGUGGCUGUGGCUAGACUGCC [C8G A24C],0.09
2,AGCAGAGCUCAACACAGCGUGGCAAAGUGGCUGUGGCUAGACCGCC [G1A U43C],0.11
3,GGCAGACCUCAACCCAGCGUGGCAAAGUGGCUGUGGCUAGACUGCC [G7C A14C],0.23
4,GGGAGAGCUCAACACAGCGUGGCAAAGUGUCUGUGGCUAGACUGCC [C3G G30U],0.71
5,GGCAGAGCUCAACACAGCGUGGCAAAGUAGCUGUGGCUAGACUGGC [G29A C45G],0.2
6,GGCAGAGCUCAACAUAGCGUGGCAAAGUGGCUGCGGCUAGACUGCC [C15U U34C],0.14
7,GGCAGACCUCAACAUAGCGUGGCAAAGUGGCUGUGGCUAGACUGCC [G7C C15U],0.14
8,GGCAGAGCUCAACACAGCGUGGCAAAGUGACUCUGGCUAGACUGCC [G30A G33C],0.07
9,GGCAGAGUUCCACACAGCGUGGCAAAGUGGCUGUGGCUAGACUGCC [C8U A11C],0.07
10,GGCAGAGCUCAACACAGCGUGGCAAAGGGGCUGUUGCUAGACUGCC [U28G G35U],0.09
11,GGCAAAGCUCAACACAGCAUGGCAAAGUGGCUGUGGCUAGACUGCC [G5A G19A],0.29
12,GGCAGAGCUCAACACUGCGUCGCAAAGUGGCUGUGGCUAGACUGCC [A16U G21C],0.27
13,GGCAGACCUCAACACAGCGUGGCAUAGUGGCUGUGGCUAGACUGCC [G7C A25U],0.16
14,GGCAGAGAUCAACACAGCGUGGAAAAGUGGCUGUGGCUAGACUGCC [C8A C23A],0.25
15,GGAAGAGCUCAACACAGCGUGGCAAAGUGGCUGUGGCUAGAUUGCC [C3A C42U],0.26
16,GGCAGAGCUCAACACAGCGUGGCAAAGUGGCUGUGGGUAGACUGCU [C37G C46U],0.04
17,GGCAGAGCUCAACACAGCGUGACAAAGGGGCUGUGGCUAGACUGCC [G22A U28G],0.67
18,GGCAGAGCUCAACACAGCAUGGCAAAGUGGCUGUGGCUAGUCUGCC [G19A A41U],0.77
19,GCCAGAGCUCAACACCGCGUGGCAAAGUGGCUGUGGCUAGACUGCC [G2C A16C],0.02

row,Variant,self-cleavage
1,GGCAGAGCUCAACACAGAGUGGCAAACUGGCUGUGGCUAGACUGCC [C18A G27C],0.62
2,GGCAGAGCUCAACACUGCGUGGCAAAGUGGCUGUGGAUAGACUGCC [A16U C37A],0.11
3,GGCAGAACUAAACACAGCGUGGCAAAGUGGCUGUGGCUAGACUGCC [G7A C10A],0.05
4,GGGAGAGCUCAACACAGCGUGGCAAAGUCGCUGUGGCUAGACUGCC [C3G G29C],0.43
5,GGUAGAGCUCAACACAGCGUGGCAAAGUGGCUGUCGCUAGACUGCC [C3U G35C],0.11
6,GGCAGAGCUCAACACAGCGUGGCAAAGUGGCGGUGGCUCGACUGCC [U32G A39C],0.09
7,GGCAGAACUCAACACAGCGGGGCAAAGUGGCUGUGGCUAGACUGCC [G7A U20G],0.06
8,GGCAGAGCUCAACACCGCGCGGCAAAGUGGCUGUGGCUAGACUGCC [A16C U20C],0.19
9,GGCUAAGCUCAACACAGCGUGGCAAAGUGGCUGUGGCUAGACUGCC [A4U G5A],0.1
10,GGCAGUGCUCAACACAGGGUGGCAAAGUGGCUGUGGCUAGACUGCC [A6U C18G],0.24
11,GGCAGAGCUCAACACAGCGUGGCAAAGUGGCUGUGGCUCAACUGCC [A39C G40A],0.08
12,GGAAGAGCUCAACACAGCGUGGCAUAGUGGCUGUGGCUAGACUGCC [C3A A25U],0.79
13,GGGAGAGCUCAACACAGCUUGGCAAAGUGGCUGUGGCUAGACUGCC [C3G G19U],0.56
14,GGCAGAGCUCAACACAGCGUGGCUAAGUGGCUGUGACUAGACUGCC [A24U G36A],0.22
15,GGCAGAGCUCAACACAGCGUAGCAAAGUGGCUGAGGCUAGACUGCC [G21A U34A],0.08
16,GGCAGAGCUCAACACAGCGUGGCAAAGUGGCUGCGGCUAGACUCCC [U34C G44C],0.11
17,GGCAGAGCUCAACACAGCGUGGCAAAGUGGCUGCGGCUAGACUUCC [U34C G44U],0.09
18,GGCAGAGCUCAACACAGCGUGGCAAAGUGGCUGUGGCUAAACGGCC [G40A U43G],0.09

# Source: the RNAGym collection of RNA variant scans (doi:10.7554/elife.90254)
